Laboratory results from PMC10163693, “The oncogenic role of NF1 in gallbladder cancer through regulation of YAP1 stability by direct interaction with YAP1” (Journal of Translational Medicine, 2023).

Experiments:
Details in all cases: both partners purified
[1] = target: T1, YAP1^WW2 (as used in ITC) (UniProt P46937 227-266); assay: ITC; 25 °C, PEAQ-ITC; 10 mM NF1^PPQY peptide injected (20 injections of 2 μl) into 1 mM YAP1^WW1 or YAP1^WW2; 10 mM Tris pH 8.0, 100 mM NaCl; one-site binding model
T1 construct: Yes-associated protein 1 (YAP1), second WW domain; the label YAP1^WW2 is defined as residues 227-266 in the pull-down methods; The ITC methods name only YAP1^WW2

[2] = target: T2, YAP1^WW1 (as used in ITC) (UniProt P46937 174-204); assay: as above
T2 construct: Yes-associated protein 1 (YAP1), first WW domain; the label YAP1^WW1 is defined as residues 174-204 in the pull-down methods; The ITC methods name only YAP1^WW1

[3] = target: T3, GST-NF1^PPQY (residues 2665-2687) (UniProt P21359-2 2665-2687); assay: pull-down; GST, GST-NF1^PPQY or GST-NF1^AAAA prebound on Glutathione Sepharose beads; increasing amounts of His-Sumo-YAP1^WW1 or His-Sumo-YAP1^WW2 added; 20 mM Tris pH 8.0, 150 mM NaCl, 2 h, 4 °C; eluted with 10 mM GSH; SDS-PAGE, Coomassie blue
T3 construct: Neurofibromin 1 (NF1), residues 2665-2687, holds the PPQY motif; also called GST-tagged NF1^PPQY; source: purified; not shown: GST, N-terminal, kept
T3 chain (looked up): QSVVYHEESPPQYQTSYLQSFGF

B1: NF1^PPQY peptide (residues 2671-2680: EESPPQYQTS) (peptide)
peptide: EESPPQYQTS
notes: also called NF1 peptides; source: synthetic peptide (Scilight-Peptide, China)
Kd [1]: 346 µM | Kd [2]: 320 µM

B2: His-Sumo-YAP1^WW2 (residues 227-266) (domain or fragment, UniProt P46937 227-266, looked up)
chain: SASGPLPDGWEQAMTQDGEIYYINHKNKTTSWLDPRLDPR
notes: Yes-associated protein 1 (YAP1), second WW domain, residues 227-266; source: purified; not shown: His, N-terminal, kept; Sumo, N-terminal, kept
binding result [3]: binds

B3: His-Sumo-YAP1^WW1 (residues 174-204) (domain or fragment, UniProt P46937 174-204, looked up)
chain: PAGWEMAKTSSGQRYFLNHIDQTTTWQDPRK
notes: Yes-associated protein 1 (YAP1), first WW domain, residues 174-204; source: purified; not shown: His, N-terminal, kept; Sumo, N-terminal, kept
binding result [3]: binds
